Data reported in the supplement of paper PMC11865577.

Experiments:
Experiment in all cases: pull-down binding Z-score (relative to library population); higher = stronger binding
[1] = test system: TO-3-N3 (biotin conjugate); conditions: RNA library: Library-2
Outline: (§1)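 Biotin-conjugated small molecule (100 pmol) on streptavidin beads was incubated with 1 μg of heat-folded Cy5- or Cy3-end-labelled RNA library in phosphate/NaCl/KCl buffer at 25 °C for 60 min. Following three washes, RNA was eluted with hot SDS and hybridised at 55.5 °C for 20 h to a DNA barcode microarray. The binding value is a Z-score computed from the library mean and standard deviation, after subtraction of beads without compound and averaging of barcoded replicate probes with the highest and lowest excluded.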

TO-N3 (biotin conjugate) = conditions: RNA library: Library-2
Outline: as §1

[2] = test system: TO-N3-2 (biotin conjugate); conditions: RNA library: Library-2
Outline: as §1

[3] = test system: TO-3-N3-2 (biotin conjugate); conditions: RNA library: Library-2
Outline: as §1

[4] = test system: G-clamp-N3 (biotin conjugate); conditions: RNA library: Library-1 (pre-miRNA loops + repeats)
Outline: as §1

Sequence	pull-down binding Z-score [1]	pull-down binding Z-score (TO-N3 (biotin conjugate))	pull-down binding Z-score [2]	pull-down binding Z-score [3]	pull-down binding Z-score [4]
UCAGGUGAAUGUGUCUGG [hsa-mir-3916]	-0.539	-0.773	-0.347	-0.427	-1.06
UAUAUACUGAUGUAAUUUUCCUUGGAUUUAUAUGCAGUACUGAG [hsa-mir-6130]	0.00904	0.102	-0.225	0.252	-0.931
CUGGUAGUAUAAAACCCAG [hsa-mir-934]	-0.0745	-0.151	-0.468	-0.114	0.805
AGUGCCUCACAGCCGCACAGGACCGAGGAUGCU [hsa-mir-4737]	0.0032	0.371	0.917	-0.204	0.613
UCUUCCCGGAGUCGGGAAAA [hsa-mir-320a]	-0.0669	-0.187	-0.901	-0.307	1.85
UAUGCAAAGCUCUGACAGUGUUUCACUUGCUA [hsa-mir-7848]	-0.489	-0.256	-0.0647	-0.145	0.148
GGAUAGAAACUAUUAUUCUAUUC [hsa-mir-664a]	-0.357	-0.784	-1.38	-0.303	-0.818
GGAUGGCCAGGGAAGUAUGCCGGGCCUUGGCAUUUC [hsa-mir-7159]	0.218	0.814	1.9	0.175	2.04
AUGUGUUGUGAUGGCACAGCGU [hsa-mir-592]	-0.831	-0.817	0.256	-0.582	-0.64
UGCUCUGGUGACUGAGGACCGCCAGGCA [hsa-mir-4763]	-0.245	-0.091	0.367	-0.197	-0.385
ACACUUCCUAUAUGUAUCCACAUAUAUAUAGU [hsa-mir-568]	-0.562	-0.69	-0.936	-0.0673	0.00925
UCUUGGUGCCACCAUUGAGAACGCCAGGA [hsa-mir-492]	-0.644	-0.279	0.868	-0.506	-1.02
UUCAUUUUAUUUAUGAUGAG [hsa-mir-496]	-0.959	-1.2	-1.33	-0.288	1.12
GCCCGCUGUGUUCACUCGGGC [hsa-mir-602]	-0.169	-0.398	-0.52	-0.556	0.773
UCCACCCCCAGAGAAUCCCUAAACCGGGGGUGGA [hsa-mir-1289-1]	-0.51	-0.645	-0.449	-0.243	-1.69
GUGUAGAGGCGGAGCACAG [hsa-mir-1471]	0.151	0.847	1.46	0.381	0.507
CCAGGCCACAUAAUGAGCCAAA [hsa-mir-6771]	0.665	0.899	0.607	0.198	-1.04
UCAUUUAUGUGAACUAAAAUAUAAAUUU [hsa-mir-513a-2_513a-1]	-1.03	-1.25	-1.11	-0.361	-1.8
CUGAUUGUCAUAUGUCGUUUGUGGGAUCCG [hsa-mir-340]	-0.605	-0.333	0.334	-0.336	-0.698
UGGAAGGAAUGGGAUCUACUUCCA [hsa-mir-3612]	0.389	0.285	-0.214	0.46	0.981
CGGACACCCGGCCUCCACUUUCUGUGGCAGGUACCUCCUCCA [hsa-mir-4505]	0.675	1.05	1.47	0.209	0.149
GGUGUCGAACUCAUGGCUGCCACC [hsa-mir-6782]	-0.346	-0.065	0.629	-0.167	0.197
GGCAGGGUCCUCCAGCUCAUUCCUCCUGCC [hsa-mir-6829]	0.564	0.491	0.71	0.56	0.723
UUUGCCAUUAAAAGUAAUGGUAAA [hsa-mir-548x-2]	-0.753	-1.29	-1.58	-0.616	-0.261
CCUUUGUGAGCAGUGUGACCCAAGGCCUGUGGACAGGG [hsa-mir-555]	-0.0854	0.241	1.15	-0.351	0.911

Sequence	pull-down binding Z-score [1]	pull-down binding Z-score (TO-N3 (biotin conjugate))	pull-down binding Z-score [2]	pull-down binding Z-score [3]	pull-down binding Z-score [4]
GUUUGCAAGGGGUGUUUCUGUCCAUGGUCAGGC [hsa-mir-4283-1_4283-2]	0.578	0.778	0.725	0.154	1.19
CCAAUGGUAUCCAGUGAUUCGUUGA [hsa-mir-4709]	-0.486	-0.0552	0.186	-0.442	-0.854
GGUAUGGAUUCUGUUGUUUUGGCAACAUUCU [hsa-mir-8088]	-0.382	-0.328	-0.244	0.124	0.269
AUUAUGUUUUGGACAUAGAAACAUAAC [hsa-mir-5688]	-0.878	-0.981	-0.665	-0.377	-0.841
GCAGCACUGUGCUGGGGAUGUUGC [hsa-mir-1301]	1.08	1.04	0.858	0.078	1.24
AAGUAAUUGUUUCUAAUGUACU [hsa-mir-412]	-0.549	0.00941	0.583	0.0532	0.96
GAUGGGAUUAGAAACCAUAUGUCUCAUC [hsa-mir-3617]	0.0209	-0.25	-0.438	-0.165	0.264
AUUCAGACUCAGGU [hsa-mir-921]	-0.232	-0.204	-0.0427	-0.0856	-0.651
CUCGCUGGGAGGUGUGCUAUCGUCUUCCCUGGGAG [hsa-mir-3689d-2]	0.157	0.338	0.541	-0.246	-0.351
GUUCCUGUGAUUUUUC [hsa-mir-198]	-0.267	-0.29	-0.289	-0.212	-0.819
CAGGCGGGGCAGCCCAAUGCCAUGGGCCUGAU [hsa-mir-4695]	0.737	1.32	1.92	0.157	2.14
GCCGGAGCGGGC [hsa-mir-1181]	0.493	0.703	0.58	0.0808	1.74
GGCUGUGGCCUAGGGCAAGCCACAAAGCC [hsa-mir-4642]	0.0577	0.183	0.939	0.245	0.507
CUGGGGACUGUGUGGACUGGUAUCACCCAG [hsa-mir-2278]	-0.242	0.225	0.585	-0.298	0.134
GCCCCAGGGCAGGGGC [hsa-mir-4515]	-0.247	-0.583	-0.972	-0.473	1.01
UUGGUGUGUAUUGCCUUGUCAA [hsa-mir-1179]	-0.972	-0.924	-0.0369	-0.217	-0.723
CACUAAUGUGAUUAAUGUUGUUGUG [hsa-mir-3657]	-0.405	-0.611	-0.402	-0.0793	-1.39
GUGUGGAGAGAGCACUGAGCCUGCCCACC [hsa-mir-6849]	-0.134	0.55	1.45	-0.152	-0.498
UGAGUGAUGACUCAGGCGACUCCA [hsa-mir-338]	-0.345	0.461	1.51	-0.0635	1.31
UUUUUCUUUACUUUUAAUGGCAAA [hsa-mir-548u]	-1.03	-1.35	-1.2	-0.338	0.72
AUGUGAUGUCACUGAGGAAAUCACAC [hsa-mir-216b]	-0.223	-0.124	-0.00778	-0.272	0.862
UCUAUCUGUAUUCUUACUGAAGGGA [hsa-mir-504]	-0.739	-0.937	-0.728	-0.42	0.763
CAAGAGGUGUGAGCCACACACACGCCUGGCCUCCUG [hsa-mir-5699]	0.771	0.813	0.687	0.0475	1.28
AAGCAGGGUUGGGCCUGGUU [hsa-mir-7641-1]	-0.192	-0.00685	0.549	-0.112	-1.23
UGGUAUCCUGACCG [hsa-mir-1973]	0.627	0.408	0.287	-0.269	-0.747

Sequence	pull-down binding Z-score [1]	pull-down binding Z-score (TO-N3 (biotin conjugate))	pull-down binding Z-score [2]	pull-down binding Z-score [3]	pull-down binding Z-score [4]
UUAUUUGAGAUGAGUUACAUCUUGGAGG [hsa-mir-1204]	0.0122	-0.0949	-0.536	-0.295	-0.564
UGGAGUUUUUUUUUCCUCCUG [hsa-mir-4329]	0.315	0.219	0.0619	0.465	-0.689
ACUUAAGCACCAGGUAAAAUCUGGUGCUUAAGU [hsa-mir-4720]	-1.09	-1.56	-1.69	-0.698	0.139
CACACUGGUGAGGUAACAGGAUCCGGUG [hsa-mir-182]	0.159	0.38	0.691	0.0141	0.926
UGACUCAGAUCU [hsa-mir-759]	-0.321	-0.271	-0.155	-0.249	-1.38
CUGUUGUUUCAGCUCGACAACAACAG [hsa-mir-3937]	-0.212	-0.333	-0.505	-0.335	0.361
GUGAGCUCAGCUCCCUGCCUCAC [hsa-mir-3622b]	-0.00258	0.138	0.811	-0.173	-1.4
CGCGCCCGGCCUAACUUUUAAGAAACGUCGGCCCGGGAGCG [hsa-mir-5095]	1.24	1.27	1.15	0.695	-0.0298
CUUACUGUACACGUGGCUGGCAAG [hsa-mir-4428]	-0.0149	0.588	1.09	0.108	-0.412
UGGGCAGUUCUUCUGCUGG [hsa-mir-1587]	0.21	0.149	0.377	0.0756	0.403
GAAGGGGAGUUUCCCUCUAUUCCCUUC [hsa-mir-3679]	0.265	-0.0396	-0.594	-0.155	-0.729
UUAUCUGUCACCAGUCAGAUAACUGUCACCAGUCAGUUAA [hsa-mir-4764]	-0.842	-0.684	-0.396	-0.324	-0.644
CCCUGCACUCAGUUUGCACAGGG [hsa-mir-4511]	-0.159	-0.122	0.0492	-0.184	0.204
CAAACCGGACCUGAGCGUUUUG [hsa-mir-375]	1.14	1.08	0.74	0.514	-0.122
CUUUUUGCCACCUGAGCACAGUCAGCAGUCAGCAUAAAA [hsa-mir-4275]	0.6	1.13	1.15	0.292	0.39
GGAGCUCAGCACCUGCCUGCCACCCACGCAGACCAGCCCCUGCUCUGUUCCCACAG [hsa-mir-4648]	0.85	1.56	1.9	0.329	-0.622
GGCGGAGGCAGGCGUGACCGUUUGCC [hsa-mir-4632]	0.432	1.11	1.56	0.38	1.09
GCUGGGGGUAAAUGACUUGCACAUGAACACAAC [hsa-mir-708]	-0.0277	0.304	0.578	0.191	-0.951
GGACGUCACCACCAUGGCC [hsa-mir-650]	0.0495	0.232	0.358	0.247	-1.19
GUGGGUUGUGAGGACUGAGGCCAGACCCAC [hsa-mir-181d]	-0.504	-0.139	0.803	-0.244	1.5
GGGAAGGAGAAGGGACGCUUCCC [hsa-mir-3127]	0.262	0.268	0.895	0.167	2.68
AUGGUCUCUAUAUUUAUGAUGAUUAA [hsa-mir-889]	0.533	0.577	0.0111	0.373	-0.798
AUUUCUGUAGCUCUGAGACUAGACCU [hsa-mir-544b]	-0.442	-0.0563	0.409	-0.376	-0.0868
GGCCCCAGGAAGAAGGGCCUGGUGGAGCC [hsa-mir-6743]	0.235	0.577	1.51	0.267	2.82
